Among the data in article PMC8914513 are Kd values, retold here.

Assay [1] addresses DHFR (Homo sapiens) (UniProt P00374). Briefly: QCM-D. The conditions noted are these: cited from earlier work.
For assay [2] the target is unchanged. Kind of assay: MST. The following applies: cited from earlier work.
Assay [3] has as its target CK2alpha-phosphorylated thymidylate synthase fraction (pTS), as used in MST (human) (UniProt P04818). Briefly: MST; two proteins in solution, Premium capillaries: labeled DHFR with SHMT 157 uM-4.79 nM; labeled SHMT with TS 62.0 uM-1.9 nM; labeled pTS with SHMT 157 uM-4.79 nM; Kd model fit.
Assay [4] concerns the target serine hydroxymethyltransferase, cytosolic (SHMT1), His-tagged, immobilised in QCM-D (UniProt P34896). Kind of assay: QCM-D (quartz crystal microbalance with dissipation monitoring); two proteins: 5 uM His-tagged SHMT immobilised on His-tag capturing sensor QSX340; tagless ligand introduced (0.1-1.0 uM or 0.5-7.0 uM for TS, pTS or DHFR); 20 mM Tris-HCl pH 7.6, 100 mM (salt not given), 10 mM MgCl2, 0.05% Tween 20, 25 C, 200 ul/min; Langmuir isotherm fit.

Sequence of thymidylate synthase (P04818 2-313): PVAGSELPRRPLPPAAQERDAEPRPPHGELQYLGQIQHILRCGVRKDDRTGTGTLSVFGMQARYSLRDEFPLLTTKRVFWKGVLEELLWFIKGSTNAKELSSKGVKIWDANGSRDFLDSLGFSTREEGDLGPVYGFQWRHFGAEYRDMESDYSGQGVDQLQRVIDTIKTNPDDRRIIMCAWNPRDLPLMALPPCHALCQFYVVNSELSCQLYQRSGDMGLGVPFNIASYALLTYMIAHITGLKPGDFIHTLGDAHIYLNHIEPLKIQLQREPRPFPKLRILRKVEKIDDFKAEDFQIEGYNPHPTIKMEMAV
Sequence of DHFR (Homo sapiens) (P00374 whole entry): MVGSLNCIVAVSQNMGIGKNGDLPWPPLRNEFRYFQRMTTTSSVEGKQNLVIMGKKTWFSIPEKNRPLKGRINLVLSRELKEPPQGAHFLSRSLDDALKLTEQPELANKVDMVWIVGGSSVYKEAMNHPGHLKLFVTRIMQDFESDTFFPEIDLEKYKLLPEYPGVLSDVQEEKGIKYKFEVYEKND
Sequence of CK2alpha-phosphorylated thymidylate synthase fraction (pTS), as used in MST (human) (P04818 whole entry): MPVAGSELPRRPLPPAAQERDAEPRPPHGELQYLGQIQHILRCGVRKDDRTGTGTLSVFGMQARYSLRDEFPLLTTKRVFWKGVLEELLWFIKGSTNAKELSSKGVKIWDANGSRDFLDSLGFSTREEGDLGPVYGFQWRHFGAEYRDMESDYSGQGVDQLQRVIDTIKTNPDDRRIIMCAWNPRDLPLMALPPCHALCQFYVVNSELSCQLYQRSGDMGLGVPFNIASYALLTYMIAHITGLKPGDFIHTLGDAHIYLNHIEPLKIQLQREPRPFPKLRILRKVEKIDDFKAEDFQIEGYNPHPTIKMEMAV
Sequence of serine hydroxymethyltransferase, cytosolic (SHMT1), His-tagged, immobilised in QCM-D (P34896 whole entry): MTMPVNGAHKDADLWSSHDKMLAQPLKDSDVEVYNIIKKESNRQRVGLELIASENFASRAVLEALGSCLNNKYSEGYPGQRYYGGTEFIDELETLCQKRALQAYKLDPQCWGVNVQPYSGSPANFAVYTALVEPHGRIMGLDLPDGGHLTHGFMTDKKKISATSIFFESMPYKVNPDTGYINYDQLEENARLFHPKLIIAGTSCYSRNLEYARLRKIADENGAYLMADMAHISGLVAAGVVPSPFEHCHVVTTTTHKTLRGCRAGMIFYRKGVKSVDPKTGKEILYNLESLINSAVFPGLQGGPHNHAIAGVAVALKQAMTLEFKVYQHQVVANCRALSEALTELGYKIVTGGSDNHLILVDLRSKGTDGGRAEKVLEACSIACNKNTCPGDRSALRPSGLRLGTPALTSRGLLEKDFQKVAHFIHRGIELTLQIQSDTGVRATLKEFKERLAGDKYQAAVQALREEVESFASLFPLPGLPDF

Take “thymidylate synthase (from UniProt P04818)”: the Kd in assay [1] is 7.6 µM; in assay [2] it was 2.8 µM. Regarding “serine hydroxymethyltransferase, cytosolic (SHMT1), as used in MST (from UniProt P34896 1-483) (enzyme)”, the Kd in assay [3] is 0.219 µM. As for “CK2alpha-phosphorylated thymidylate synthase fraction (pTS), tagless ligand in QCM-D (from UniProt P04818 1-313) (enzyme)”, the Kd in assay [4] was 5.35 µM.
